Paper PMC2185075 (The Journal of Cell Biology, 1999)
Like-named read-outs stand apart in the source and are kept apart here.

Tests used:
Experiment in all cases: two-hybrid
[1] = target: ASF/SF2, two-hybrid fusion (UniProt Q07955)
SC35, two-hybrid fusion [2] = target: SC35, two-hybrid fusion (UniProt Q01130)
[3] = target: ASF/SF2, two-hybrid fusion (UniProt Q07955); remark: listed apart in the source
SC35, two-hybrid fusion [4] = target: SC35, two-hybrid fusion (UniProt Q01130); remark: listed apart in the source
[5] = target: ASF/SF2, two-hybrid fusion (UniProt Q07955); remark: listed apart in the source
SC35, two-hybrid fusion [6] = target: SC35, two-hybrid fusion (UniProt Q01130); remark: listed apart in the source
[7] = target: ASF/SF2, two-hybrid fusion (UniProt Q07955); remark: listed apart in the source
[8] = target: T1, U2AF65ΔRS, two-hybrid fusion (UniProt P26368 66-475)
[9] = target: T2, U2AF65, two-hybrid fusion (UniProt P26368 1-475)
[10] = target: T1, U2AF65ΔRS, two-hybrid fusion; remark: listed apart in the source
[11] = target: T2, U2AF65, two-hybrid fusion; remark: listed apart in the source

Chain of SC35, two-hybrid fusion (Q01130 whole entry, the tested form may be a part): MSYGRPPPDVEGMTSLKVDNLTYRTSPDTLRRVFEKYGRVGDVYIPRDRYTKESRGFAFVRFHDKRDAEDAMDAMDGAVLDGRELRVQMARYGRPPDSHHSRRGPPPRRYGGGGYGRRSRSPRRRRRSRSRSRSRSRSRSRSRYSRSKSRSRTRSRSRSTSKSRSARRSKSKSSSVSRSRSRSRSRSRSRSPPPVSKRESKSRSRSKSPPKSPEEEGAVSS
T1 sequence (P26368 66-475, stated change not applied): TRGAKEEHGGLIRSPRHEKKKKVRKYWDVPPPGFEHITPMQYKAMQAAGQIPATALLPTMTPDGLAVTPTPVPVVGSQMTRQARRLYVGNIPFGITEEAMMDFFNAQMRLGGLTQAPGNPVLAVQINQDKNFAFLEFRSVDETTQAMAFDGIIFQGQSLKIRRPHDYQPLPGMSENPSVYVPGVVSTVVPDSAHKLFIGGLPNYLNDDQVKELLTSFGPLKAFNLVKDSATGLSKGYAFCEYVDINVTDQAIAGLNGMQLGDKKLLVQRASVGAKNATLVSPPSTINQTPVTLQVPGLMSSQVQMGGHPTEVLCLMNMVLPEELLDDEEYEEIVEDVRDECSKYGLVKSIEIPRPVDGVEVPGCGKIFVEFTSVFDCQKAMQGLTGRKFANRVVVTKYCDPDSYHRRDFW
Chain of ASF/SF2, two-hybrid fusion (Q07955 whole entry, the tested form may be a part): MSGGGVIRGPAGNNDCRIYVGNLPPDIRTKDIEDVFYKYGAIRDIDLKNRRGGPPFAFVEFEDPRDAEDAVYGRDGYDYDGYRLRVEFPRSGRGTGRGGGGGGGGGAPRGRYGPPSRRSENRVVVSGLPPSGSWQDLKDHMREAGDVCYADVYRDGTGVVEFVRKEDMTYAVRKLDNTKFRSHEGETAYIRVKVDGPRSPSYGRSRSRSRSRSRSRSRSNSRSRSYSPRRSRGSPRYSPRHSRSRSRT
T2 sequence (P26368 whole entry, the tested form may be a part, one chain of several): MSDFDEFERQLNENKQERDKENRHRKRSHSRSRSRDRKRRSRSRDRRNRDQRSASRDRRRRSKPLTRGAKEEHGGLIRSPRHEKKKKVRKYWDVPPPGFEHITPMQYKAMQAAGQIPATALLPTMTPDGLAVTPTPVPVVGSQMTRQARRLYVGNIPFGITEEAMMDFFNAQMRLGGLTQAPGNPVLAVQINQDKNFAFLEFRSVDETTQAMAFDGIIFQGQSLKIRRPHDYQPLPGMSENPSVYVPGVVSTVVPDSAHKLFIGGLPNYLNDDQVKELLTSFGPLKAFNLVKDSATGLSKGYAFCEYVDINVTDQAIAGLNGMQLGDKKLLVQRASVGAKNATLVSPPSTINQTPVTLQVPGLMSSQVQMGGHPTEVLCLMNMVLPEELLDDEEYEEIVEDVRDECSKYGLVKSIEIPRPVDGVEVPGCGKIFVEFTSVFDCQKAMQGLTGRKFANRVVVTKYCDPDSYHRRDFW

U1-70K, two-hybrid fusion (from UniProt P08621 1-437) (natural protein; other documents disagree on this pair)
percentage of the maximal two-hybrid interaction (β-galactosidase) [1]: 100% | percentage of the maximal two-hybrid interaction (β-galactosidase) (SC35, two-hybrid fusion [2]): 104% | percentage of the maximal two-hybrid interaction (β-galactosidase) [3]: 98% | percentage of the maximal two-hybrid interaction (β-galactosidase) (SC35, two-hybrid fusion [4]): 86% | percentage of the maximal two-hybrid interaction (β-galactosidase) [5]: 100% | percentage of the maximal two-hybrid interaction (β-galactosidase) (SC35, two-hybrid fusion [6]): 100% | percentage of the maximal two-hybrid interaction (β-galactosidase) [7]: 35%

B1: U2AF35ΔRS, two-hybrid fusion (domain or fragment)
chain: MAEYLASIFGTEKDKVNCSFYFKIGACRHGDRCSRLHNKPTFSQTIALLNIYRNPQNSSQSADGLRCAVSDVEMQEHYDEFFEEVFTEMEEKYGEVEEMNVCDNLGDHLVGNVYVKFRREEDAEKAVIDLNNRWFNGQPIHAELSPVTDFREACCRQYEMGECTRGGFCNFMHLKPISRELRRELYGRRR
two-hybrid β-galactosidase, fold over background (empty prey vector) [8]: 460 fold over background | two-hybrid β-galactosidase, fold over background (empty prey vector) [9]: 93 fold over background | two-hybrid β-galactosidase, fold over background (empty prey vector) [10]: 347 fold over background | two-hybrid β-galactosidase, fold over background (empty prey vector) [11]: 308 fold over background

B2: U2AF35, two-hybrid fusion (natural protein)
chain: MAEYLASIFGTEKDKVNCSFYFKIGACRHGDRCSRLHNKPTFSQTIALLNIYRNPQNSSQSADGLRCAVSDVEMQEHYDEFFEEVFTEMEEKYGEVEEMNVCDNLGDHLVGNVYVKFRREEDAEKAVIDLNNRWFNGQPIHAELSPVTDFREACCRQYEMGECTRGGFCNFMHLKPISRELRRELYGRRRKKHRSRSRSRERRSRSRDRGRGGGGGGGGGGGGRERDRRRSRDRERSGRF
two-hybrid β-galactosidase, fold over background (empty prey vector) [10]: 340 fold over background
